Source: patent US20090291088A1, “THERAPEUTIC COMBINATIONS OF ANTI-IGF-1R ANTIBODIES AND OTHER COMPOUNDS” (Biogen Idec MA Inc., priority 2008, published 2009)

Columns and labels:
[1] = target: T1, recombinant human IGF-1R ectodomain (Homo sapiens, UniProt P08069); test: ELISA binding of Fabs and murine MAbs to recombinant soluble IGF-1R (IGF-1R-His, IGF-1R-Fc); settings: murine monoclonal antibodies; read-out: Binding (EC50nM) Protein ELISA
T1 construct: denoted hIGF-1R(1-902)-His10, was purchased from R&D systems (Cat. No. 305-GR-050); His or Fc (two alternative proteins, not both on one chain); purchased R & D Systems 305-GR
Procedure: Recombinant human IGF-1R ectodomain was used to screen a human naïve phagemid Fab library containing 3.5×10^10 unique clones (Hoet, R. M., et al. Nat. Biotechnol. 23(3):344-8 (2005), (“Hoet et al.”) which is incorporated herein by reference in its entirety). Two distinct panning arms were followed using biotinylated IGF1R-his and IGF1R-Fc protein. Proteins were captured on steptavidin-coated magnetic beads prior to incubation with the phage library. In the case of IGF1R-Fc, a biotinylated anti-Fc antibody was captured on the magnetic beads, followed by captured of the Fc fusion protein. […] Sequence analysis of all clones determined 12 clones were isolated in both arms of the panning strategy. […]
ELISA assays were performed to determine specific binding of the Fab fragment antibodies to soluble IGF-1R over the insulin receptor. […] Bound antibody was detected with HRPO labeled goat α-human kappa (Southern Biotechnology Associates, #2060-05) for Fabs and goat α-mouse IgG Fcγ (Jackson Immunoresearch, # 115-035-164) for murine MAbs. Color development was stopped by addition of 4NH2SO4 and optical density is measured at 450 nm using a Molecular Devices plate reader and binding curves are generated.

Panc-1 = test: IGF driven tumor cell growth, CELL TITER-GLO, Panc-1; format: cell-based, human; settings: pancreatic cancer cell
Procedure: NCI-H23, Calu-6, Colo-205, Panc-1, BxPC-3 (ATCC) tumor lines were purchased from ATCC. Cell lines were grown in complete growth medium containing RPMI-1640 (ATCC), 10% fetal bovine serum (Irvine Scientific Inc.) and 50 μg/ml of Gentamycin (Gibco, Invitrogen). Trypsin-EDTA solution (Sigma) was used for removal of adherent cells from culture vessels. Phosphate buffered saline, pH 7.2, was from MediaTech Inc The 96-well clear bottom plates for luminescent assay was purchased from Wallac Inc.
Cells grown to 80% monolayers were, trypsinized, washed, resuspended and plated into 96-well plates in 200 μl of 2% growth medium at 8×10^3 cells/well for NCI-H23 and Colo-205 cells; and 5×10^3 cells/well for Calu-6, Panc-1 and BxPC-3 cells. After 24 hours, the culture medium was replaced with 100 μl of serum free medium (SFM), and 50 μl of serially diluted antibodies at 4× concentration was added. […] All treatments were done in triplicates. Cell growth was measured using the CELL TITER-GLO™ Luminescent Cell Viability Assay (Promega, Madison, Wis.). The 1:1 mixture of reagent and SFM was added at 200 μl/well. Luminescence was detected on Wallac (Boston, Mass.) plate reader.
The ability of the selected murine antibodies to inhibit IGF/IGF-1R dependent in vitro growth of several human tumor lines (Lung, H-23, Calu-6; Pancreas, BxPc-3, Panc-1, MiaPaCa and Colon Colo205) was measured by a proliferation assay described in Example 13.

[2] = target: T2, recombinant human IGF-1R-10His (Homo sapiens, UniProt P08069); test: SPR, antibodies and Fabs on IGF-1R-His captured via PENTA-His antibody; format: binding; settings: full-length antibodies, 64 nM to 0.5 nM
T2 construct: denoted hIGF-1R(1-902)-His10, was purchased from R&D systems (Cat. No. 305-GR-050); purchased R&D Systems 305-GR-050

hIGF-1R-Fc = target: T3, hIGF-1R-Fc (Homo sapiens, UniProt P08069); test: IGF-1 and IGF-2 blocking ELISA-based competition assay; format: binding
T3 construct: (3) human IGF-1R(1-903)-Fc (hIGF-1R-Fc, Biogen Idec); host or cells: CHO
Procedure: hIGF-1R-Fc was biotinylated using EZ-Link Sulfo-NHS-LC-Biotin according to the protocol provided by the manufacturer (Pierce Cat. No. 21335). Biotinylated human IGF-1R-Fc at 5 μg/ml was added to the wells of SigmaScreen streptavidin-coated 96-well plates (Sigma, Cat. No. M5432-5EA; Sigma-Aldrich Corp. (St. Louis, Mo., USA)) at 100 μL/well and incubated overnight at 2-8° C. The plates were then washed four times with 200 μL/well PBST. […] Dilutions were made from 1.3 μM to 10 pM for M13-C06 and M14-C03, from 5.2 μM to […] for M14-G11, and from 2.6 μM to 10 pM for both P1E2 and αIR3. Human IGF-2 His was prepared at 320 nM in PBST, 1.0 mg/ml BSA. The antibodies were serial diluted (from […] to 5 pM for M13-C06 and M14-C03, from 5.2 μM to 5 pM for M14-G11 and αIR3, and from 5.2 μM to 20 pM for P1E2) using a solution of 320 nM IGF-2 His. The dilutions were added to the plates in duplicate at 100 μL/well and the plates were incubated at RT for 1 hour. The plates were then washed four times with 200 μL/well PBST. An HRP-conjugated anti-Histag antibody (Penta-His HRP Conjugate, QIAGEN, Cat. No. 1014992) was diluted 1:1000 in PBST and added to plates at 100 μL/well, and the plates were incubated at RT for one hour. […] The absorbance of each well was determined at 450 nm, and the results were normalized and plotted against the log of antibody concentration.

EC50 [1] [nM]	binding to immobilized recombinant human IGF-1R (SPR) [2]	Molecule	Proliferation of Tumor Cells Panc-1 (Panc-1)	blocking of IGF-1 binding to IGF-1R (hIGF-1R-Fc; 320 nM IGF-1 His)	blocking of IGF-2 binding to IGF-1R (hIGF-1R-Fc; 320 nM IGF-2 His)
0.085	–	20C8.3B8: murine anti-human IGF-1R monoclonal antibody from hybridoma; VH SEQ ID NO:43, VL SEQ ID NO:103 (antibody, V domains shown, Antibody variable heavy chain sequence; Antibody variable light chain sequence) VH: DVQLQESGPDLVKPSQSLSLTCTVTGYSITSGYSWHWIRQFPGNKLEWMGYIHYSGGTNYNPSLKSRISITRDTSKNQFFLQLNSVTTEDTATYYCARSGYGYRSAYYFDYWGQGTTVTVSS VL: DIVLTQSPASLAVSLGQRATISCRASKSVSTSAYSYMHWYQQKPGQPPKLLIYLASNLESGVPARFSGSGSGTDFTLNIHPVEEEDAATYYCQHSRELPYTFGGGTKLEIK	+++ (>30%@0.1 μg/ml)	–	–
0.042	–	20D8.24B11: murine anti-human IGF-1R monoclonal antibody from hybridoma; VH SEQ ID NO:53, VL SEQ ID NO:103 (antibody, V domains shown, Antibody variable heavy chain sequence; Antibody variable light chain sequence) VH: DVQLQESGPDLVKPSQSLSLTCTVTGYSITSGYSWHWIRQFPGNKLEWMGYIHYSGGTNYNPSLKSRISITRDTSKNQFFLQLNSVTTEDTATYYCARSGYGYRSAYYFDYWGQGTTLTVSS VL: DIVLTQSPASLAVSLGQRATISCRASKSVSTSAYSYMHWYQQKPGQPPKLLIYLASNLESGVPARFSGSGSGTDFTLNIHPVEEEDAATYYCQHSRELPYTFGGGTKLEIK	+++ (>30%@0.1 μg/ml)	–	–
–	strong binding	M14-C03: anti-IGF-1R antibody, allosteric blocker of IGF-1 and IGF-2 (antibody, V domains shown, Antibody variable heavy chain sequence; Antibody variable light chain sequence) VH: EVQLLESGGGLVQPGGSLRLSCAASGFTFSKYMMSWVRQAPGKGLEWVSYISPSGGLTWYADSVKGRFTISRDNSKNTLYLQMNSLRAEDTAVYYCARDGARGYGMDVWGQGTTVTVSS VL: DIQMTQSPATLSLSPGERATLSCRASQSVSSYLAWYQQKPGQAPRLLIYDASNRATGIPARFSGSGSGTDFTLTISSLEPEDFAVYYCQQRSNWPPEVTFGPGTKVDIK	–	block both IGF-1 and IGF-2 binding to IGF-1R	block both IGF-1 and IGF-2 binding to IGF-1R
